From article PMC12325954

Target: A. franciscana ATP synthase c-subunit (c8-ring) (A. franciscana (endogenous in A. franciscana mitochondria))
Experiment: cryo-EM structure; single-particle cryo-EM of the ATP synthase monomer purified from A. franciscana mitochondria in DDM at pH 7.0; rotational states 1, 2 and 3a; local refinement of F1 and FO

Substance “A. franciscana ATP synthase c-subunit (c8-ring) (natural protein)” has a stoichiometry N of 8.
